± gives the uncertainty stated by the source.
B1: GAS2-like protein 1, residues 209 to 276; numbered along this chain, Q99501 (parent)
chain: DELVREILGRCTCPDQFPMIKVSEGKYRVGDSSLLIFVRVLRSHVMVRVGGGWDTLEHYLDKHDPCRC

Variants of: B1
Test: abundance fitness (aPCA) (normalised: wild type 0, dead -1); higher = more abundant; growth selection in yeast, the domain comes from the species named
Conditions: Homo sapiens

Abundance fitness of substitutions, site by site:
H44: T 0.074 ± 0.061; Q 0.103 ± 0.094; M 0.131 ± 0.092; G 0.064 ± 0.073; F -0.532 ± 0.13; C -0.182 ± 0.18; K 0.007 ± 0.1; D -0.004 ± 0.066; Y -0.515 ± 0.12; L -0.341 ± 0.092; A -0.001 ± 0.071; S 0.099 ± 0.074
V38: R -0.745 ± 0.15; M -0.587 ± 0.22; C -0.058 ± 0.15; L -0.275 ± 0.1; F -0.809 ± 0.35; S -0.626 ± 0.15; A -0.465 ± 0.1; G -0.566 ± 0.14; P -0.3 ± 0.12; Q -0.837 ± 0.42; T -0.402 ± 0.49; I -0.322 ± 0.22; N -0.737 ± 0.25
R39: I -0.294 ± 0.068; T -0.058 ± 0.087; V -0.236 ± 0.069; E -0.179 ± 0.074; W -0.695 ± 0.23; C -0.216 ± 0.11; P -0.728 ± 0.12; A -0.14 ± 0.07; D 0.089 ± 0.11; F -0.172 ± 0.09; S -0.144 ± 0.045; Y -0.333 ± 0.078; L -0.368 ± 0.066; Q -0.03 ± 0.067; M -0.172 ± 0.097; G -0.242 ± 0.06; H -0.049 ± 0.11
W53: C -0.485 ± 0.38
L56: A -0.944 ± 0.12; V -0.967 ± 0.11; S -0.691 ± 0.098; F -0.3 ± 0.088; E -0.965 ± 0.24; H -0.959 ± 0.21; C -0.916 ± 0.28; K -0.868 ± 0.13; Q -1.13 ± 0.39; D -0.852 ± 0.19; I -0.485 ± 0.13; N -0.806 ± 0.26; Y -0.716 ± 0.12; M -0.628 ± 0.12; W -0.883 ± 0.15; G -0.546 ± 0.062
V49: G -0.25 ± 0.14; S -0.048 ± 0.042; I -0.133 ± 0.058; N 0.013 ± 0.072; Q 0.146 ± 0.062; K -0.324 ± 0.089; M -0.133 ± 0.06; A 0.007 ± 0.041; R -0.247 ± 0.055; Y -0.035 ± 0.058; D 0.256 ± 0.076; C -0.069 ± 0.12; F -0.337 ± 0.074; L -0.319 ± 0.046
G50: K -0.03 ± 0.05; C -0.517 ± 0.078; I -0.765 ± 0.13; R -0.18 ± 0.044; F -0.896 ± 0.23; H -0.205 ± 0.072; T -0.259 ± 0.051; Y -0.5 ± 0.12; V -0.541 ± 0.12; N 0.007 ± 0.11; Q -0.017 ± 0.055; D 0.076 ± 0.068; L -0.473 ± 0.05; M -0.28 ± 0.085; P -0.039 ± 0.043; W -0.803 ± 0.13; A -0.08 ± 0.086; E 0.011 ± 0.061; S -0.143 ± 0.05
D54: L -0.346 ± 0.3; G 0.115 ± 0.42
T55: C -0.785 ± 0.21; G -0.815 ± 0.11; K -0.489 ± 0.14; H -0.399 ± 0.15; V -0.773 ± 0.11; I -0.817 ± 0.1; A -0.545 ± 0.074; W -0.801 ± 0.14; Q -0.431 ± 0.065; R -0.09 ± 0.039; F -0.263 ± 0.088; P -0.282 ± 0.092; S 0.027 ± 0.05; Y -0.033 ± 0.092; L -0.145 ± 0.046; N -0.185 ± 0.08; M -0.512 ± 0.086; D -0.431 ± 0.081
V45: M -0.505 ± 0.13; F -0.927 ± 0.23; R -0.847 ± 0.14; C -0.227 ± 0.092; W -0.804 ± 0.23; P -0.169 ± 0.098; S -0.937 ± 0.21; L -0.328 ± 0.054; Q -0.919 ± 0.14; I -0.076 ± 0.055; H -0.693 ± 0.15; A -0.141 ± 0.13
G51: A 0.024 ± 0.072; P -0.206 ± 0.072; E 0.229 ± 0.065; R -0.159 ± 0.047; T 0.032 ± 0.051; D 0.176 ± 0.057; H 0.004 ± 0.17; K 0.056 ± 0.065; V -0.363 ± 0.052; C -0.157 ± 0.077; I -0.544 ± 0.12; Y -0.286 ± 0.098; W -0.512 ± 0.074; L -0.219 ± 0.043; Q -0.015 ± 0.067; M -0.15 ± 0.057
L41: F -0.143 ± 0.054; K -0.171 ± 0.072; S -0.013 ± 0.047; D 0.011 ± 0.059; I 0.148 ± 0.056; C -0.09 ± 0.059; H 0.175 ± 0.068; Y 0.086 ± 0.09; A -0.148 ± 0.045; W 0.032 ± 0.041; P -0.86 ± 0.1; R 0.042 ± 0.036; M 0.098 ± 0.062; Q 0.13 ± 0.06; V 0.149 ± 0.029; E 0.143 ± 0.051; N -0.068 ± 0.08; G -0.293 ± 0.044
L35: N 0.097 ± 0.085; M -0.025 ± 0.044; V -0.041 ± 0.051; R -0.195 ± 0.052; Y -0.022 ± 0.058; W -0.64 ± 0.091; T 0.072 ± 0.046; K -0.227 ± 0.086; Q -0.171 ± 0.17

— the Human Domainome abundance scans (Beltran et al. 2025)
